Results taken from PMC11630572, “Discovery of Nanosota-9 as anti-Omicron nanobody therapeutic candidate” (PLOS Pathogens, 2024).

Columns and labels:
Experiment in all cases: SPR; Biacore S200; spike ectodomain immobilized on CM5 chip by chemical crosslinking; Nanosota-9-His injected at 8, 16, 32, 64, 128 nM; running buffer 10 mM HEPES, 150 mM NaCl, 0.05% Tween 20
Details in all cases: both partners purified
[1] = biological target: T1, recombinant spike ectodomain of SARS-CoV-2 Omicron subvariant JN.1 (SARS-CoV-2 Omicron JN.1, strain)
T1 construct: The same GISAID id is printed for XBB.1.5 and JN.1; also called JN.1 spike ectodomain; JN.1 spike; not shown: His tag, C-terminal, kept

[2] = biological target: T2, recombinant spike ectodomain of SARS-CoV-2 Omicron subvariant XBB.1.5 (SARS-CoV-2 Omicron XBB.1.5, strain)
T2 construct: The same GISAID id is printed for XBB.1.5 and JN.1; also called XBB.1.5 spike ectodomain; XBB.1.5 spike; not shown: His tag, C-terminal, kept

[3] = biological target: T3, recombinant spike ectodomain of SARS-CoV-2 Omicron subvariant BA.5 (SARS-CoV-2 Omicron BA.5, strain)
T3 construct: also called BA.5 spike ectodomain; BA.5 spike; not shown: His tag, C-terminal, kept

B1: His-tagged Nanosota-9 (Nanosota-9-His) (VHH)
VHH: QVQLQESGGGLVQPGGSLRLSCTASGIALHTHATGWFRQAPGKEREGVSCISSGDGTTYYEDSVEGRFTISRDNAKNTVYLQMNSLKLEDTAVYYCAADPGAVCHSGSYYYTDDDFYYRGQGTQVTVSS
notes: Nanosota-9 nanobody from an alpaca immunized with the BA.5 spike ectodomain; also called monomeric Nanosota-9; not shown: His tag, C-terminal, kept
For B1, the Kd [1] was 29.4 nM, the Kd [2] was 0.06 nM and the Kd [3] was 0.078 nM.
